Measurements from paper PMC1182371, “Zinc-finger domains of the transcriptional repressor KLF15 bind multiple sites in rhodopsin and IRBP promoters including the CRS-1 and G-rich repressor elements”.

B1: IRBP2 (dsDNA)
DNA 1: GGACTTGTCAGGGCCTTTA
DNA 2: TAAAGGCCCTGACAAGTCC
B2: IRBP1 (dsDNA)
DNA 1: GGACAGGATTAAAGGCTTACTGGAG
DNA 2: CTCCAGTAAGCCTTTAATCCTGTCC

Biological target: KLF15-ZF-GST (human, UniProt Q9UIH9 294-416)
Assay: competition; 50x, 250x vs bRho29 probe; also hRho29 probe (data not shown); EMSA: 4 mM HEPES, 5 mM EGTA, 100 mM KCl, 0.25 mM ZnCl2, 0.02% NP40, 0.1 M DTT, 4% glycerol, 90-120 min on ice, pH not stated; footprinting: same buffer, DNase I at room temperature 1 min
Conditions: protein: recombinant; tags: N-terminal GST; label: unlabeled; GG ends end-filled

Sequence of KLF15-ZF-GST (Q9UIH9 294-416): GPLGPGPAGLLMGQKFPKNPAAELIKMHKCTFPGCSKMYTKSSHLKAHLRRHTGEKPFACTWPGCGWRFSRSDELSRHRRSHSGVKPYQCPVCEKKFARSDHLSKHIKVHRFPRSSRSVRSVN

Binder | binding result
B1 | no binding
B2 | no binding
